# Test results published in patent publication US20110243948A1 (LEXICON PHARMACEUTICALS, published 2011).
# Values joined by “and” are separate entries in the source; they are usually repeats but may differ in a detail not shown here. Equal entries are not always repeated.
# T1: SP1 peptide (synthetic peptide with the sequence of the SP1 region of ANGPTL3) (mouse and human (the sequence is the …))
# T1 construct: also called ANGPTL3 SP1; hANGPTL3 SP1 peptide
# T1 peptide: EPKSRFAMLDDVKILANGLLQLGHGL
# T2: mouse ANGPTL3 (mouse, UniProt Q9R182 17-455, limits assumed)
# T2 sequence: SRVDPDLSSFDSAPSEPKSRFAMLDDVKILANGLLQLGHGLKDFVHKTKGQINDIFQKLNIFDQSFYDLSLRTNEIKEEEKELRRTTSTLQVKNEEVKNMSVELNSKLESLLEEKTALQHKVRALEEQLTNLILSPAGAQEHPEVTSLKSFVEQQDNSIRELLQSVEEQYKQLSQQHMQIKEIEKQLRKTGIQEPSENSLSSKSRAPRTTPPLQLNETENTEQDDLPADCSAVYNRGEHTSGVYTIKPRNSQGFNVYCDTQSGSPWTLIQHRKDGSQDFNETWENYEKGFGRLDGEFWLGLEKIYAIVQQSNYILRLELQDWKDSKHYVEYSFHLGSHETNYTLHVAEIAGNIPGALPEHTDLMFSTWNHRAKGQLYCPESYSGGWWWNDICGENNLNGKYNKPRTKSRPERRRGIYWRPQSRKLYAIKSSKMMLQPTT
# T3: hANGPTL3T (full-length HIS-tagged human ANGPTL3) (human, UniProt Q9Y5C1 17-460)
# T3 construct: Human ANGPTL3 with a glycine and His6 at the C-terminus, purified from conditioned medium of infected CHO cells; also called full-length ANGPTL3T; human ANGPTL3T
# T3 sequence: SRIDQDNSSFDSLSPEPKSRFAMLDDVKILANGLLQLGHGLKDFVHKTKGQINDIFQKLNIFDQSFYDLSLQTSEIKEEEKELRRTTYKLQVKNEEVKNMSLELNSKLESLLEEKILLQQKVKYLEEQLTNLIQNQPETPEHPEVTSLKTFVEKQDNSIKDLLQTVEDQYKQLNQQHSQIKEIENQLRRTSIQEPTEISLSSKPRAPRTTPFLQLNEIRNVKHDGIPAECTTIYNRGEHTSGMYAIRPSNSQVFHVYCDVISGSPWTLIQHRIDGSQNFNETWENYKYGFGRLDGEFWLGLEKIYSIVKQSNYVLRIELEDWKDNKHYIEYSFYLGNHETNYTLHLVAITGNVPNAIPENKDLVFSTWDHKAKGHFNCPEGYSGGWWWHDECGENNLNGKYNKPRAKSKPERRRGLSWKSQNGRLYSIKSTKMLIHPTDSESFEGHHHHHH
# T4: N'-hANGPTL3T (human, UniProt Q9Y5C1 20-243)
# T4 construct: also called rN'-hANGPTL3T
# T4 sequence: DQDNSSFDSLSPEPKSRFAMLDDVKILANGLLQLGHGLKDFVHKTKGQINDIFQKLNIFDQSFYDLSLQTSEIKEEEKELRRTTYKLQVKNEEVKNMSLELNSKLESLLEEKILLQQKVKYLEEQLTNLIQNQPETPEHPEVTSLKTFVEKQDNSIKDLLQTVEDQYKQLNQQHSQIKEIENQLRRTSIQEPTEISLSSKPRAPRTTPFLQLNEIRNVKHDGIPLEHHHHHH
# How the values were obtained:
# [1] = target: T1, SP1 peptide (synthetic peptide with the …); assay: SPR (BIACORE 3000), antibody captured on anti-mouse IgG Fc chip, SP1 peptide injected, 1:1 model
# Protocol: (§1) The BIACORE® 3000 is a real-time biomolecular analysis system for detecting and quantifying protein-protein interactions using surface plasmon resonance technology. The following affinity constants were determined according to the manufacturer's instructions for the BIACORE® 3000 system: equilibrium dissociation constant (KD), association rate constant (kₒₙ), and dissociation rate constant (koff).
# The BIACORE CM5 chip surface was coated with an anti-mouse IgG Fc by coupling 90 μg/ml of ImmunoPure Goat Anti-Mouse IgG Fc (Product No.: 31170, Pierce, Rockford, Ill. 61105) to the chip surface using an Amine Coupling Kit (Product No.: BR-1000-50, GE Healthcare, Uppsala Sweden). The antibody was then captured on the anti-mouse IgG Fc BIACORE chip surface by injecting the antibody at a flow rate of 10 μl/min for 30 sec. The association and dissociation phases, which are used to determine kₒₙ and koff constants, were generated by first injecting the SP1 peptide into the BIACORE® 3000 system having an antibody-coated chip surface for 2 minutes at a flow rate of 30 μl/min. […] The injection phase was used to determine the association rate constant, or kₒₙ. Following each injection, the SP1 peptide was dissociated from the antibody by flowing BIACORE HBS-EP buffer (Product No.: BR-1001-88, GE Healthcare, Uppsala Sweden) for 5 minutes over the peptide-antibody complex on the BIACORE CM5 chip surface. This dissociation phase was used to determine the dissociation rate constant, or koff. Prior to the next injection, the BIACORE chip surface was regenerated by injecting 10 mM HCl at a flow rate of 100 μl/min for 30 seconds.
# mouse ANGPTL3 = target: T2, mouse ANGPTL3; assay: cell-based or functional assay
# [2] = target: T3, hANGPTL3T (full-length HIS-tagged human …); assay: SPR (BIACORE 3000), antigen amine-coupled to CM5 chip, Fab injected, 1:1 model
# Protocol: as §1
# (§2) Affinity constants of the 4.7.1, 4.8.3, and 4.9.1 antibodies for N′-hANGPTL3T and hANGPTL3T protein antigens were each determined as follows. The BIACORE CM5 chip surface was coated with a protein antigen by coupling either 10 μg/ml of N′-hANGPTL3T or 20 μg/ml of hANGPTL3T to the chip surface using an Amine Coupling Kit (Product No.: BR-1000-50, GE Healthcare, Uppsala Sweden). The association and dissociation phases, which are used to determine the kₒₙ and koff constants, were generated by first injecting a Fab fragment of the antibody (generated using a Fab Preparation Kit (Product No.: 44885, Pierce, Rockford, Ill. 61105) according to the manufacturer's instructions) into the BIACORE® 3000 system having a coated chip surface for 2 minutes at a flow rate of 30 μl/min. […] The injection phase was used to determine the association rate constant, or kₒₙ. Following each injection, the Fab fragment was dissociated from the protein antigen by flowing BIACORE HBS-EP buffer (Product No.: BR-1001-88, GE Healthcare, Uppsala Sweden) for 5 minutes over the antigen-Fab complex on the BIACORE CM5 chip surface. This dissociation phase was used to determine the dissociation rate constant, or koff. Prior to the next injection, the BIACORE chip surface was regenerated by injecting 10 mM HCl at a flow rate of 100 μl/min for 30 seconds.
# N'-hANGPTL3T = target: T4, N'-hANGPTL3T; assay: as above
# Protocol: as §1, §2
# [3] = target: T1, SP1 peptide (synthetic peptide with the …); assay: antibody capture ELISA (FIG. 9)
# [4] = target: T3, hANGPTL3T (full-length HIS-tagged human …); assay: ELISA (data not shown)
Kd [1] [nM],koff [1] [s⁻¹],kon [1] [M⁻¹ s⁻¹],rescue of LPL activity (percentage increase in LPL activity in the presence of both ANGPTL3 and anti-ANGPTL3 antibody relative to ANGPTL3 alone) (mouse ANGPTL3) [%],Kd [2],koff [2],kon [2],Kd (N'-hANGPTL3T),koff (N'-hANGPTL3T),kon (N'-hANGPTL3T),binding result [3],binding result [4],Binder
,,,> 50,,,,,,,binds,,"antibody 4.8.3 (antibody, IgG2a, V domains shown, Biotinylated in the alanine-scanning ELISA) VH: EVQLQQSGPELVKPGASVKMSCKASGYTFISCVMHWVKQKPGQGLEWIGYINPYNDGTKYNEKFKGKATLTSDKSSSTAYMELSSLTSEDSAVYYCAREGDYYGYFDYWGQGTTLTVSS VL: EIQMTQTTSSLSASLGDRVTISCWASQDINNYLNWYQQKPDGTVKLLIYYTSRLHSGVPSRFSGSGSGTDYSLTISNLKQEDIATYFCQQGNTLPPTFGGGTKLEIKR"
46.1,0.00778,169000,> 50,,,,,,,,,"antibody 4.9.1 (antibody, IgG1, V domains shown, Biotinylated in the alanine-scanning ELISA) VH: EVQLQQSGPELVKPGASVKMSCKASGYTFTSYVMHWVKQKPGQGLEWIGYINPYNDGTKYNENFKGKATLTSDKSSSTAYMEFSSLTSEDSAVYYCAREGDYYGYFDYWGQGTTLTVSS VL: DIQMTQTTSSLSASLGDRVTISCRASQDIRNYLNWYQQKPDGTVKLLIYYTSRLHSGVPSRFSGSGSGTDYSLTISNLEQEDIATYFCQQGNTLPPTFGGGTKLEIKR"
1.8,0.0015,835000,,,,,,,,,binds,"antibody 5.35 (antibody, IgG2a, V domains shown, Biotinylated in the alanine-scanning ELISA) VH: QVTLKESGPGILHPSQTLTLTCSFSGFSLNTFGLAVGWIRQPSGKGLEWLGHIWWDDHKYYNGVLKSRLTISKDSSKKQVFLRIANVDTADTARYYCARLETGTGFAYWGQGTLVTVSA VL: DIVLTQSTPSVPVTPGESVSISCRSSKSLLDSNGITYLYWFLQRPGQSPQLLIYRMSKLASGVPDRFSGSGSETAFTLRISRVEAEDVGVYYCMQPLEYPFTFGAGTKLELNG"
1.78,0.00193,1.08e+06,,,,,,,,,binds,"antibody 5.50 (antibody, IgG2b, V domains shown, Biotinylated in the alanine-scanning ELISA) VH: EVQLQQSGPELVKPGASVKISCKASGFTFTDYYMNWVKQSHGESLEWIGDINPNNGGTIYNQKFRGKATLTVDKSSSTAYMELRSLTSEDSAVYYCVRLPWYFDVWGTGTTVTVSS VL: DVLMTQTPLSLPVSLGDQASISCRSSQSILHSNGNTYLEWFLQKPGQSPKLLIYKVSNRFSGVPDRFSGSGSGTDFTLKISRVEAEDLGVYYCFQGSHVPYTFGGGTKLEIKR"

# More lines, now with the values behind:
Binder,Kd [1] [nM],koff [1] [s⁻¹],kon [1] [M⁻¹ s⁻¹],rescue of LPL activity (percentage increase in LPL activity in the presence of both ANGPTL3 and anti-ANGPTL3 antibody relative to ANGPTL3 alone) (mouse ANGPTL3) [%],Kd [2],koff [2],kon [2],Kd (N'-hANGPTL3T),koff (N'-hANGPTL3T),kon (N'-hANGPTL3T),binding result [3],binding result [4]
"antibody 4.7.1 (antibody, IgG2b, V domains shown, Biotinylated in the alanine-scanning ELISA) VH: EVQLQQSGPELVKPGASVKMSCKASGYTFTSYVMHWVKQKPGQGLEWIGYFNPYNDGTKYNEKFKGKATLTSDKSSSTAYMELSSLTSEDSAVYYCAREGDYYGYFDYWGQGTTLTVSS VL: DIQMTQTTSSLSASLGDRVTISCRASQDISNFLNWYQQKPDGTVKLLIYYTSRLHSGVPSRFSGSGSGTDYSLTISNLEQEDIATYFCQQGNTLPPTFGGGTKLEIKR",26.1,0.00546,209000,> 50,,,,,,,,
"Fab fragment of antibody 4.7.1 (Fab, V domains shown) VH: EVQLQQSGPELVKPGASVKMSCKASGYTFTSYVMHWVKQKPGQGLEWIGYFNPYNDGTKYNEKFKGKATLTSDKSSSTAYMELSSLTSEDSAVYYCAREGDYYGYFDYWGQGTTLTVSS VL: DIQMTQTTSSLSASLGDRVTISCRASQDISNFLNWYQQKPDGTVKLLIYYTSRLHSGVPSRFSGSGSGTDYSLTISNLEQEDIATYFCQQGNTLPPTFGGGTKLEIKR",,,,,45.3 nM and 117 nM,0.00796 s⁻¹ and 0.00953 s⁻¹,176000 M⁻¹ s⁻¹ and 81200 M⁻¹ s⁻¹,49.5 nM and 77.5 nM,0.00915 s⁻¹ and 0.00899 s⁻¹,185000 M⁻¹ s⁻¹ and 116000 M⁻¹ s⁻¹,,
"Fab fragment of antibody 4.8.3 (Fab, V domains shown) VH: EVQLQQSGPELVKPGASVKMSCKASGYTFISCVMHWVKQKPGQGLEWIGYINPYNDGTKYNEKFKGKATLTSDKSSSTAYMELSSLTSEDSAVYYCAREGDYYGYFDYWGQGTTLTVSS VL: EIQMTQTTSSLSASLGDRVTISCWASQDINNYLNWYQQKPDGTVKLLIYYTSRLHSGVPSRFSGSGSGTDYSLTISNLKQEDIATYFCQQGNTLPPTFGGGTKLEIKR",,,,,970 nM and 450 nM,0.0216 s⁻¹ and 0.0273 s⁻¹,22300 M⁻¹ s⁻¹ and 60000 M⁻¹ s⁻¹,210 nM and 251 nM,0.019 s⁻¹ and 0.0275 s⁻¹,90000 M⁻¹ s⁻¹ and 109000 M⁻¹ s⁻¹,,
"Fab fragment of antibody 4.9.1 (Fab, V domains shown) VH: EVQLQQSGPELVKPGASVKMSCKASGYTFTSYVMHWVKQKPGQGLEWIGYINPYNDGTKYNENFKGKATLTSDKSSSTAYMEFSSLTSEDSAVYYCAREGDYYGYFDYWGQGTTLTVSS VL: DIQMTQTTSSLSASLGDRVTISCRASQDIRNYLNWYQQKPDGTVKLLIYYTSRLHSGVPSRFSGSGSGTDYSLTISNLEQEDIATYFCQQGNTLPPTFGGGTKLEIKR",,,,,48.1 nM and 45.2 nM,0.00622 s⁻¹ and 0.00777 s⁻¹,129000 M⁻¹ s⁻¹ and 172000 M⁻¹ s⁻¹,45.4 nM and 55 nM,0.00593 s⁻¹ and 0.00734 s⁻¹,131000 M⁻¹ s⁻¹ and 133000 M⁻¹ s⁻¹,,
